Measurements: US20070037156

Tested on: gelatin

279Arg rare variant of MMP-9 (matrix metalloproteinase-9)
MMP-9 activity by zymography (gelatin in the polyacrylamide gel): Activity in both lanes 1 and 2 of FIG. 4 is similar

279Gln common variant of MMP-9 (matrix metalloproteinase-9)
MMP-9 activity by zymography (gelatin in the polyacrylamide gel): Activity in both lanes 1 and 2 of FIG. 4 is similar
